Results: article PMC5983740, “Tryptophan-Containing Dual Neuroprotective Peptides: Prolyl Endopeptidase Inhibition and Caenorhabditis elegans Protection from β-Amyloid Peptide Toxicity” (International Journal of Molecular Sciences, 2018)

Target: T1, prolyl endopeptidase (PEP) (Elizabethkingia meningoseptica, UniProt P27028)
T1 construct: purchased Seikagaku Corporation (Tokyo, Japan)
Assay: biochemical
Type: biochemical
Settings: 0.7 and 1.4 mg/mL
Description: The PEP activity was determined as previously described with minor modifications. Enzyme assays were performed in 96-well microplates using Z-Gly-Pro-p-nitroanilide as a substrate and measuring the increase in absorbance at 410 nm due to the release of p-nitroaniline. Ten µL of tenfold peptide or hydrolysate solution in 100 mM sodium phosphate buffer, pH 7 ([…] for LFHs), 30 µL of a 0.1 U/mL PEP solution in 100 mM sodium phosphate buffer (pH 7) and 35 µL of the same sodium phosphate buffer were pre-incubated at 30 °C for 5 min, and the mixture incubated with 25 µL of 2 mM Z-Gly-Pro-p-nitroanilide in 40% 1,4-dioxane for 30 min at the same temperature. The reaction was finished by the addition of 100 µL 10% Triton X-100 in 1 M sodium acetate buffer (pH 4), and the absorbance measured at 410 nm in a microplate reader. Data are expressed as the percentage of PEP residual activity with respect to a control without peptide (100%).
The IC50 value of a peptide was defined as the concentration required to inhibit 50% of the PEP activity and the value for each experiment was estimated by non-linear regression of the experimental data to a four-parameter logistic curve using the software package SigmaPlot v 13.0 (SPSS Inc., Chicago, IL, USA).

T1 sequence (P27028 21-705): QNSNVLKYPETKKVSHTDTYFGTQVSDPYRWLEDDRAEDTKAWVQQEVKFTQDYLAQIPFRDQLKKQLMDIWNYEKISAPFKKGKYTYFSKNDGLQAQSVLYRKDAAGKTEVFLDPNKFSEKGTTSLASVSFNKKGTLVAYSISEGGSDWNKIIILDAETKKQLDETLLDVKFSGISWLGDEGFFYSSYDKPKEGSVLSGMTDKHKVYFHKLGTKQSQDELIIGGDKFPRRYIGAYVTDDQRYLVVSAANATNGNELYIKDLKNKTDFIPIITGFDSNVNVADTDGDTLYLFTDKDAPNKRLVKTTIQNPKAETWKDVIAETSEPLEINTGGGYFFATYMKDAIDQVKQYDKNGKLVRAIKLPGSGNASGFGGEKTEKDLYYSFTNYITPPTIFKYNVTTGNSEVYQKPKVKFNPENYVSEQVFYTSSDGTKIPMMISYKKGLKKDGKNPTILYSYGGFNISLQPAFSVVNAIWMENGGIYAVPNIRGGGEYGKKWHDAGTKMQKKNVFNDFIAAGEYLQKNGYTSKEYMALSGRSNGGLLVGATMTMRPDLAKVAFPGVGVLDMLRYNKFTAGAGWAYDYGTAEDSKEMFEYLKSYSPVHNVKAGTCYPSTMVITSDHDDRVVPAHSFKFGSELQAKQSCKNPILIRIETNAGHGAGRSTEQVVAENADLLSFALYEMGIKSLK

B1: Non-hydrolysed LF: bovine lactoferrin, multifunctional iron glycoprotein of milk whey, not hydrolysed (protein, UniProt P24627 20-708, looked up)
Lactotransferrin: APRKNVRWCTISQPEWFKCRRWQWRMKKLGAPSITCVRRAFALECIRAIAEKKADAVTLDGGMVFEAGRDPYKLRPVAAEIYGTKESPQTHYYAVAVVKKGSNFQLDQLQGRKSCHTGLGRSAGWIIPMGILRPYLSWTESLEPLQGAVAKFFSASCVPCIDRQAYPNLCQLCKGEGENQCACSSREPYFGYSGAFKCLQDGAGDVAFVKETTVFENLPEKADRDQYELLCLNNSRAPVDAFKECHLAQVPSHAVVARSVDGKEDLIWKLLSKAQEKFGKNKSRSFQLFGSPPGQRDLLFKDSALGFLRIPSKVDSALYLGSRYLTTLKNLRETAEEVKARYTRVVWCAVGPEEQKKCQQWSQQSGQNVTCATASTTDDCIVLVLKGEADALNLDGGYIYTAGKCGLVPVLAENRKSSKHSSLDCVLRPTEGYLAVAVVKKANEGLTWNSLKDKKSCHTAVDRTAGWNIPMGLIVNQTGSCAFDEFFSQSCAPGADPKSRLCALCAGDDQGLDKCVPNSKEKYYGYTGAFRCLAEDVGDVAFVKNDTVWENTNGESTADWAKNLNREDFRLLCLDGTRKPVTEAQSCHLAVAPNHAVVSRSDRAAHVKQVLLHQQALFGKNGKNCPDKFCLFKSETKNLLFNDNTECLAKLGGRPTYEEYLGTEYVTAIANLKKCSTSPLLEACAFLTR
With B1 as the molecule, how does the “inhibitory effect on PEP activity” value read?
Its value is “did not show any inhibitory effect”.
